The chains are these.
B1: Antibody 37G2 (recombinantly expressed in IgG1 form) (antibody, V domains shown)
VH: QVQLVQSGAEVKKPGSSVKVSCKASGGTFSSYAITWVRQAPGQGLEWMGGIIPIFGTANFAQKFQGRVTITADESTSTAYMELSSLRSEDTAVYYCAHLGGFADPFDYWGQGTLVTVSS
VL: EIVLTQSPATLSLSPGERATLSCRASQSVSNYLAWYQQKAGQAPRVLIYDAFNRATGIPARFSGSGSGTDFTLTISSLEPEDFAVYYCQQRSNWPPRITFGQGTRLEIK
B2: Antibody 31C2 (recombinantly expressed in IgG1 form) (antibody, V domains shown)
VH: QVQLVQSGAEVKKPGSSVKVSCKASGGTFSSYAISWVRQAPGQGLEWMGGIIPIFGTTNYAQKFQGRVTITADESTSTAYMELNSLRSEDTAVYYCAGRSAYGDKGYYFDYWGQGTLVTVSS
VL: EIVLTQSPATLSLSPGERATLSCRASQSVSNFLAWYQQKPGQAPRLLIYDASNRATGIPARFSGSGSGTDFTLTISSLQPEDFAVYYCQQRSNWPPQETFGQGTKVEIK
B3: Antibody 15A7 (recombinantly expressed in IgG1 form) (antibody, V domains shown)
VH: QVQLVQSGAEVKKPGASVKVSCKASGYTFTSYDINWVRQASGQGLEWMGWMNPNSANPGYAQKFQGRVTMTRNTSISTAFMELSSLRSDDTAVYYCARARVTIHYDILTGYYSNAFDIWGQGTMVAVSS
VL: DIQMTQSPSSLSASVGDRVTITCRASQTISSYLNWYQQKPGKAPKLLIYAASSLQSGVPSRFSGSGSGADFTLTISSLQPEDFATYYCQQSYTTFMYTFGQGTMLEIK

The test deals with authentic SARS-CoV-2 (live virus). As to the kind of experiment: cell-based or functional assay.
For B1, the “EC50 of neutralization of live virus in Vero-E6 cells” value (“EC50 of neutralization of live virus” for short) worked out at 1.37 µg/mL.

For the molecule B2, the “EC50 of neutralization of live virus” value was found to be 0.57 µg/mL.

B3: the “EC50 of neutralization of live virus” value came to 0.61 µg/mL.
